According to US20160137709A1 (AMRYT PHARMACEUTICALS, published 2016):
Numbering of substitutions follows the chain as printed.

T1: chimeric Hu-Leptin/Mu-EPO receptor (human; mouse, UniProt P48357 22-839; P14753 250-507)
T1 sequence (looked up): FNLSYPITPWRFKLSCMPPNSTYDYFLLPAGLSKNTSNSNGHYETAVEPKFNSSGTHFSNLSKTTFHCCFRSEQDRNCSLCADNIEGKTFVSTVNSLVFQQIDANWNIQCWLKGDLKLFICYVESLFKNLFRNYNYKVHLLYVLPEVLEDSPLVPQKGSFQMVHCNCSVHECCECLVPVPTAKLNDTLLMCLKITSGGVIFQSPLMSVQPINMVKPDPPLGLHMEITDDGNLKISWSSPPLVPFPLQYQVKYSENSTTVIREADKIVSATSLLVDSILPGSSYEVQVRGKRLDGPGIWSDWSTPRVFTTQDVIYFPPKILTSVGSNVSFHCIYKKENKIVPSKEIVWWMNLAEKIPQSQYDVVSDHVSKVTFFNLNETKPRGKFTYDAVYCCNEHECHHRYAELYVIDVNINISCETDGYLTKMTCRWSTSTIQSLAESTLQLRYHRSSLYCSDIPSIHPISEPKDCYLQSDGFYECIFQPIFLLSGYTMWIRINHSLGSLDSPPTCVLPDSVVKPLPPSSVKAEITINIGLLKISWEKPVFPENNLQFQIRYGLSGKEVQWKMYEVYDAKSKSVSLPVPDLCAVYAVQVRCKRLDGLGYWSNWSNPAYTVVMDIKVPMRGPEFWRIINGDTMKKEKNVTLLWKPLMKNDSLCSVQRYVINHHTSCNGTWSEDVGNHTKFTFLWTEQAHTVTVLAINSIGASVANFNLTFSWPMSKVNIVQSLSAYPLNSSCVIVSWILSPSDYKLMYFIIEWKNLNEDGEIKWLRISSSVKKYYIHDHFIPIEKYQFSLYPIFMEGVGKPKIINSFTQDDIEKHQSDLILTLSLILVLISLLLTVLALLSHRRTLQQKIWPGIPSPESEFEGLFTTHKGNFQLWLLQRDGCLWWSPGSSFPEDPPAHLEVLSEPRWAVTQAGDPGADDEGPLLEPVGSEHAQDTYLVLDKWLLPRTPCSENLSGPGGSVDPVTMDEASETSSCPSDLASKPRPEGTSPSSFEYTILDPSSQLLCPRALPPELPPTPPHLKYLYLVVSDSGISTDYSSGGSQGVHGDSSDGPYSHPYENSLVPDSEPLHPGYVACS

B1: Cmpd 4 (SEQ ID NO: 56) (other)
chain: MVPIQKVQDDTKTLIKTIVTRINDISHTQSVSSKQKVTGLEFIPGLHPILTLSKMDQTLAVYQQILTSMPSRNVIQISNDLENLRDLLHVLAFSKSCHLPQASGLETLESLGGVLEASGYSTEVVALSRLQGSLQDMLQQLDLSPGCTGGGGSGGGSGGGSGGGSASLAEAKVLANRELDKYGVSDFYKRLINKAKTVEGVEALKLHILAALP
B2: Cmpd 16 (SEQ ID NO: 62) (other)
chain: MLAEAKVLANRELDKYGVSDFYKRLINKAKTVEGVEALKLHILAALPTGPIQRVQDDTKTLIKTIITRINDISPPQGVCSPRVAGLDFIPRVQSVRTLSGMDQILATYQQILTSLQSRNVIQISNDLENLRDLLHVLAFSKSCPVPRARGSDTIKGLGNVLRASVHSTEVVALSRLKAALQDMLRQLDRNPGC
B3: Cmpd 18 (SEQ ID NO: 64) (other)
chain: MLAEAKVLANRELDKYGVSDYYKNIINRAKTVEGVRALKLHILAALPTGGGGSGGGSGGGSGGGSASVPIQKVQDDTKTLIKTIVTRINDISHTQSVSSKQKVTGLEFIPGLHPILTLSKMDQTLAVYQQILTSMPSRNVIQISNDLENLRDLLHVLAFSKSCHLPQASGLETLESLGGVLEASGYSTEVVALSRLQGSLQDMLQQLDLSPGC
B4: Compound 2 (SEQ ID NO: 54) (other)
chain: B3 chain with Y21F, N24R, I25L, R28K, R36E
notes: also called Cmpd 2; ABD1-A500
B5: Cmpd 3 (SEQ ID NO: 55) (other)
chain: MVPIQKVQDDTKTLIKTIVTRINDISHTQSVSSKQKVTGLEFIPGLHPILTLSKMDQTLAVYQQILTSMPSRNVIQISNDLENLRDLLHVLAFSKSCHLPQASGLETLESLGGVLEASGYSTEVVALSRLQGSLQDMLQQLDLSPGCTGGGGSASLAEAKVLANRELDKYGVSDFYKRLINKAKTVEGVEALKLHILAALP
B6: Cmpd 14 (SEQ ID NO: 60) (other)
chain: MLAEAKVLANRELDKYGVSDFYKRLINKAKTVEGVEALKLHILAALPTGGGGSGGGSGGGSGGGSASPIQRVQDDTKTLIKTIITRINDISPPQGVCSRPRVAGLDFIPRVQSVRTLSGMDQILATYQQILTSLQSRNVIQISNDLENLRDLLHVLAFSKSCPVPRARGSDTIKGLGNVLRASVHSTEVVALSRLKAALQDMLRQLDRNPGC
B7: Compound 15 (SEQ ID NO: 61) (other)
chain: B6 chain with C97S
notes: also called Cmpd 15; ABD1-HuSeal
B8: Cmpd 9 (SEQ ID NO: 57) (other)
chain: MLAEAKVLANRELDKYGVSDFYKRLINKAKTVEGVEALKLHILAALPTGGGGSGGGSGGGSGGGSASISIEKIQADTKTLTKTIITRIIQLSTQNGVSTDQRVSGLDFIPGNQQFQNLADMDQTLAVYQQILSSLPMPDRTQISNDLENLRSLFALLATLKNCPFTRSDGLDTMEIWGGIVEESLYSTEVVTLDRLRKSLKNIEKQLDHIQGC
B9: Cmpd 1 (SEQ ID NO: 53) (other)
chain: MLAEAKVLANRELDKYGVSDFYKRLINKAKTVEGVEALKLHILAALPTGGGGASVPIQKVQDDTKTLIKTIVTRINDISHTQSVSSKQKVTGLEFIPGLHPILTLSKMDQTLAVYQQILTSMPSRNVIQISNDLENLRDLLHVLAFSKSCHLPQASGLETLESLGGVLEASGYSTEVVALSRLQGSLQDMLQQLDLSPGC

Biological target: T1, chimeric Hu-Leptin/Mu-EPO receptor
Assay: cell-based or functional assay

EC50 nM (Obeca STAT5 assay)	Binder
0.103 nM	B1
0.411 nM	B2
0.322 nM	B3
0.53 nM	B4
0.095 nM	B5
0.406 nM	B6
0.427 nM	B7
0.185 nM	B8
0.628 nM	B9

Biological target: T2, Rat serum albumin (rat, UniProt P02770 25-608)
T2 construct: Amine-coupled to the GLC sensor chip; also called Rat SA; RSA
Assay: SPR (BioRad ProteOn XPR36), albumin amine-coupled on GLC chip, polypeptide as analyte, 25 C
Procedure: (§1) All studies were conducted on a BioRad ProteOn XPR36 system using a GLC sensor chip at 25 degrees C. For amine coupling the GLC chip was activated for 5 minutes using a 1:1 mixture of sulfo-NHS/EDC diluted 30-fold from the initial stock in water as shown below. Each albumin sample was diluted to 25 ug/ml in 10 mM Na Acetate pH 5.0 and injected for 5 minutes over separate sensor surfaces. Each surface was then blocked with 1 M ethanolamine pH 8.5. Each albumin was coupled at a density of 2000-5000 in resonance units.
(§2) The binding of an engineered polypeptide was tested using 5 nM as the highest concentration in a three-fold dilution series. The running buffer contained 10 mM HEPES pH 7.4, 150 mM NaCl, 3 mM EDTA and 0.005% tween-20. All samples were tested using a 3-fold dilution series. Each concentration series was tested in duplicate. The dissociation phase for the highest concentration was monitored for 3 hours.

T2 sequence (P02770 25-608 limits assumed): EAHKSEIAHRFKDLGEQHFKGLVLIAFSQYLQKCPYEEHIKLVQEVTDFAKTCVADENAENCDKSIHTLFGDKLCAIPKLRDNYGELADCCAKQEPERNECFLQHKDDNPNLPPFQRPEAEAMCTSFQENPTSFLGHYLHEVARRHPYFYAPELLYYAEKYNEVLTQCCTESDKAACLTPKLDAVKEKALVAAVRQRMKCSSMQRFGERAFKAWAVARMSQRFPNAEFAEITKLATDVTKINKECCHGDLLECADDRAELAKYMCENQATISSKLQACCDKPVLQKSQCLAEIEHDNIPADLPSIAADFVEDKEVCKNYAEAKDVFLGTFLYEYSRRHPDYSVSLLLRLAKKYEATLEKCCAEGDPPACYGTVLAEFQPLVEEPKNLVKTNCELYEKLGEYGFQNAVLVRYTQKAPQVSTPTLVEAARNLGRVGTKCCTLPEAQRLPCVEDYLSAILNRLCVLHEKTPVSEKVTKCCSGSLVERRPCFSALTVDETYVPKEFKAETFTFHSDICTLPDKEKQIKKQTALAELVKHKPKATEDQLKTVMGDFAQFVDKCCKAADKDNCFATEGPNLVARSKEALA

Kd	Binder
0.033 nM	B4
< 0.002 nM	B7

Biological target: T3, Human serum albumin (human, UniProt P02768 25-609)
T3 construct: Amine-coupled to the GLC sensor chip; also called Human SA; HSA
Assay: as above
Procedure: as §1, §2

T3 sequence (P02768 25-609 limits assumed): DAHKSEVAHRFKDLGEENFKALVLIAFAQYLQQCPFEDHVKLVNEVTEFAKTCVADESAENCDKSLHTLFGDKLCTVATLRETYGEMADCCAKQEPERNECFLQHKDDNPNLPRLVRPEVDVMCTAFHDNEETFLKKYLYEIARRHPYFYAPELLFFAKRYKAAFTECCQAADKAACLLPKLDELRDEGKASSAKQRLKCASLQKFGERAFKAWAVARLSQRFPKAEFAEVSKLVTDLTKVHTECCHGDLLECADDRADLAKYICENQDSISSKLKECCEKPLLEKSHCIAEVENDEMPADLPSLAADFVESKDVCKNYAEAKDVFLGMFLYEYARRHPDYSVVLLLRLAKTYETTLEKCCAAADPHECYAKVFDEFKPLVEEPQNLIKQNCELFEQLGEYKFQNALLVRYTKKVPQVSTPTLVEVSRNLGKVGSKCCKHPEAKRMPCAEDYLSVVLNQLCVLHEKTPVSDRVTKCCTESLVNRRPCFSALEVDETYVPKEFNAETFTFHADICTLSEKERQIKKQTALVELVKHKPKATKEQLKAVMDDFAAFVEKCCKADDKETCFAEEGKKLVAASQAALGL

Kd	Binder
0.056 nM	B4
0.012 nM	B7

Biological target: T4, Monkey serum albumin (monkey)
T4 construct: Amine-coupled to the GLC sensor chip; also called Monkey SA
Assay: as above
Procedure: as §1, §2

T4 sequence (A2V9Z4 25-608): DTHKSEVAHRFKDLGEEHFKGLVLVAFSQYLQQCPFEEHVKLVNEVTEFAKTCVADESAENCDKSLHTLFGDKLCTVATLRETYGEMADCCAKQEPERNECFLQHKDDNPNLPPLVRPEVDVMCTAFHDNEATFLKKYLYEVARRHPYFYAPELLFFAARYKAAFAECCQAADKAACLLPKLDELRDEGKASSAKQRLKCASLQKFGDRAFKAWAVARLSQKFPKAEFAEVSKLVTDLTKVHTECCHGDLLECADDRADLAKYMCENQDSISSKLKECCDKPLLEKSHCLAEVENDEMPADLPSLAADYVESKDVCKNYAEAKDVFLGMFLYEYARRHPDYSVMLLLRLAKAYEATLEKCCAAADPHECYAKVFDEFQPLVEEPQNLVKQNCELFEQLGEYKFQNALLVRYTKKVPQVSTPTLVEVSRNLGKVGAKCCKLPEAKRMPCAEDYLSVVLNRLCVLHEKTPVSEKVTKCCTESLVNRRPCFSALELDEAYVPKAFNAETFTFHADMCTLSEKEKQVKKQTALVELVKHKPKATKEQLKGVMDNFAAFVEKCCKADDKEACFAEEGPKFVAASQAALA

Kd	Binder
0.158 nM	B4
0.017 nM	B7

Biological target: T5, Dog serum albumin (dog, UniProt P49822 25-608)
T5 construct: Amine-coupled to the GLC sensor chip; also called Dog SA
Assay: as above
Procedure: as §1, §2

T5 sequence (P49822 25-608 limits assumed): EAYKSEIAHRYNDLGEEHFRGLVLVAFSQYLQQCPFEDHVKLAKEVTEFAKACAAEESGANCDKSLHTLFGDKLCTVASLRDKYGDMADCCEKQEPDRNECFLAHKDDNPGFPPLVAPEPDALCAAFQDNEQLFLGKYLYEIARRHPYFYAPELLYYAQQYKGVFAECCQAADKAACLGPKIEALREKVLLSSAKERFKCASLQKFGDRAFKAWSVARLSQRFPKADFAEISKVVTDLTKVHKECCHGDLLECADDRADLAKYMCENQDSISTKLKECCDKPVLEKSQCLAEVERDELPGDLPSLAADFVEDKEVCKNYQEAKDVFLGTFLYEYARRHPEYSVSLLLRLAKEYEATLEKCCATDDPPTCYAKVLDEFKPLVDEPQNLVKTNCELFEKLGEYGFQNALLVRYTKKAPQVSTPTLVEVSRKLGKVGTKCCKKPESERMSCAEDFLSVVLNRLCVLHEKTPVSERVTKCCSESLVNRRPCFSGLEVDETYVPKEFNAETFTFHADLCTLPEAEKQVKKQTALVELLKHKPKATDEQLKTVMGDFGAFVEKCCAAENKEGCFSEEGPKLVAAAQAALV

Kd	Binder
0.358 nM	B4
0.04 nM	B7

Biological target: T6, Mouse serum albumin (mouse, UniProt P07724 25-608)
T6 construct: Amine-coupled to the GLC sensor chip; also called Mouse SA
Assay: as above
Procedure: as §1, §2

Kd	Binder
1.97 nM	B4
0.277 nM	B7
